# Target: ADRB2 (Adrenoceptor Beta 2) (human, UniProt P07550 1-413)
# Test: cell-based or functional assay
binder,measurement,value
"CXCR4 (C-X-C Motif Chemokine Receptor 4) (receptor, human, UniProt P61073 1-352, looked up) MEGISIYTSDNYTEEMGSGDYDSMKEPCFREENANFNKIFLPTIYSIIFLTGIVGNGLVILVMGYQKKLRSMTDKYRLHLSVADLLFVITLPFWAVDAVANWYFGNFLCKAVHVIYTVNLYSSVLILAFISLDRYLAIVHATNSQRPRKLLAEKVVYVGVWIPALLLTIPDFIFANVSEADDRYICDRFYPNDLWVVVFQFQHIMVGLILPGIVILSCYCIIISKLSHSKGHQKRKALKTTVILILAFFACWLPYYIGISIDSFILLEIIKQGCEFENTVHKWISITEALAFFHCCLNPILYAFLGAKFKTSAQHALTSVSRGSSLKILSKGKRGGHSSVSTESESSSFHSS","calcium response on co-stimulation with CXCL12 (200 nM) and formoterol (10 uM) relative to CXCL12 alone, HL-60 cells",~8 fold
same,"calcium response on co-stimulation with CXCL12 (200 nM) and formoterol (10 uM) relative to CXCL12 alone, U937 cells",~4 fold
